Assay results: the supplement of paper PMC12042874
± gives the uncertainty stated by the source.

Assay: amyloid nucleation score (Sup35N fusion, yeast selection) (log enrichment); library NNK2; higher = more nucleation; inactive = no reads after selection
Method in brief: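 Peptides of 20 random codons fused to Sup35N were expressed in psi-negative yeast, induced 24 hours with 100 μM copper sulfate, then grown 7 days at 30°C on medium lacking adenine and uracil. Input and output plasmid inserts were Illumina-sequenced. Nucleation score is the DiMSum log enrichment of output over input reads, centred on the mode score of non-aggregating sequences, excluding sequences with under 100 input reads. Random libraries had three technical output replicates.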
In the case of TVWCWVDRTMGLEWTYLTA, the amyloid nucleation score is reported as 1.1 ± 0.23. TVYPCMYGGLGHRERHLSMS showed an amyloid nucleation score of 5.06 ± 0.063. For TVYSHEKGVQLWFLLIVALL, the amyloid nucleation score was 0.27 ± 0.48. In the case of TWFAHQMWCFSILQFITLKS, the amyloid nucleation score is reported as 0.867 ± 0.32. Substance TWNISILHCI has an amyloid nucleation score of 4.84 ± 0.084. TWQTLYASSVFFANPVEHPL gave an amyloid nucleation score of 0.068 ± 0.29. TWRFYTFLFEVFRRSEILKR gave an amyloid nucleation score of -0.97 ± 1.1. For TWRLKVVGQRQTFSKFTGLG, the amyloid nucleation score was -0.133 ± 0.35. With TWRYHFADVGSILDLVG the amyloid nucleation score was -0.277 ± 0.4. In the case of TWSIYAHH, the amyloid nucleation score is reported as 0.952 ± 0.58. With TYGGEV the amyloid nucleation score was 0.251 ± 0.31. In the case of TYIQPVARRKHLA, the amyloid nucleation score is reported as 0.101 ± 0.39. TYKCLTRATKGRNHVFRFCV gave an amyloid nucleation score of 1.08 ± 0.15. Substance TYKTGDACVLVLPPHMADPR has an amyloid nucleation score of -0.446 ± 1.1. Substance TYLRSPLLLNAVSVNT has an amyloid nucleation score of 0.082 ± 0.65. TYMRGSLSEIGGTLL gave an amyloid nucleation score of 1.06 ± 0.19. TYPRDYVVRSEI gave an amyloid nucleation score of 0.74 ± 0.43. With TYRSEYCICLLLSAFFQMKG the amyloid nucleation score was -1.08 ± 1.1. In the case of TYVDTVFSGSGCYLLYKGWI, the amyloid nucleation score is reported as 0.851 ± 0.57. Work on TYVLWSFTKYRPP yielded an amyloid nucleation score of 1.02 ± 0.66. With VAFFWIKFH the amyloid nucleation score was -0.807 ± 1. With VAFGLMDQDIFSRRILTRSS the amyloid nucleation score was “inactive”. Substance VAFNCNIEIISPAGDGETFV has an amyloid nucleation score of -0.489 ± 0.27. VALRWTIRQWFSDVYPWSWY showed an amyloid nucleation score of 0.802 ± 0.45. Work on VAQVWLSNVVMYLRRAENLT yielded an amyloid nucleation score of 0.214 ± 0.26. VARRGALNVRHFFPGKREV showed an amyloid nucleation score of 0.608 ± 0.47. Work on VAVDLRGIDGNIYAFQAKIE yielded an amyloid nucleation score of 2.97 ± 0.068. VAWLW gave an amyloid nucleation score of 0.909 ± 0.21. Work on VCACKIYKRHTLGSR yielded an amyloid nucleation score of -0.573 ± 0.76. In the case of VCCKLEFVSKHFRCVNGCDE, the amyloid nucleation score is reported as 9.264 ± 0.055. Work on VCFYPECVWQSILVLDFHVG yielded an amyloid nucleation score of 3.42 ± 0.079. With VCHAGTWLQSGRTRYSIVRN the amyloid nucleation score was 3.51 ± 0.12. With VCKMSSLNLCKRP the amyloid nucleation score was -0.133 ± 1. For VCNFLYNGLEFVNLECFWR, the amyloid nucleation score was “inactive”. VCQVFVNGVSSDRVAVLVVI showed an amyloid nucleation score of 5.25 ± 0.059. VCRLFLYGQWLVGRRANSYS gave an amyloid nucleation score of -0.731 ± 0.39. VCSFVCNLCSLCEIEFWLIA showed an amyloid nucleation score of 0.521 ± 0.26. For VCTNFWELMVWAQQLLFCKL, the amyloid nucleation score was “inactive”. Work on VCVRTTWRKDGSISCTHKSP yielded an amyloid nucleation score of 0.5 ± 0.18. VDAFLWHVDVHMFIEVGVRW showed an amyloid nucleation score of -0.024 ± 0.65. VDARALDMIVVRDQTFRCTM gave an amyloid nucleation score of 1.24 ± 0.33. In the case of VDHYTETTRL, the amyloid nucleation score is reported as 0.493 ± 0.24. VDIFMFKAAHIRAKGNVVGL gave an amyloid nucleation score of -0.429 ± 0.45. VDKLGKLEVYSWLYWV showed an amyloid nucleation score of -1.86 ± 0.55. VDLYQVWSSCPVFVLWGYSC gave an amyloid nucleation score of 0.072 ± 0.79. Substance VDMTGCLTGVDVTSLRNIPL has an amyloid nucleation score of 0.931 ± 0.38. Work on VDQCPYRFKFRVSYMMVFYM yielded an amyloid nucleation score of 5.67 ± 0.086. With VDVPMNMIRWSQCNQ the amyloid nucleation score was 1.22 ± 0.59. Work on VDVRMDEWVDRTAFAWMMRV yielded an amyloid nucleation score of 0.875 ± 0.43. Work on VDYKSFRNYTFMDHYCSPYN yielded an amyloid nucleation score of 1.08 ± 0.18. With VEDDDN the amyloid nucleation score was -0.2 ± 0.63. Substance VEFLPCLSIYSACFSLDGST has an amyloid nucleation score of -1.37 ± 0.44. For VEFTRVGVRLSHDVPVHDRW, the amyloid nucleation score was 3.95 ± 0.066. VEFYCSTERCLYDFTNG gave an amyloid nucleation score of -2.3 ± 0.75. With VEGVFLISMPPWPFYRLPSR the amyloid nucleation score was 0.961 ± 0.81. Substance VEMKGRWLIVNRRLGVSPQA has an amyloid nucleation score of 0.097 ± 0.35. In the case of VEVSECVHVIMYFRISYNKL, the amyloid nucleation score is reported as 3.4 ± 0.15. For VEWEVMGVPDSKLDRGTGTV, the amyloid nucleation score was 1.09 ± 0.53. With VFAYIHFVTLGGCLLGF the amyloid nucleation score was 1.3 ± 0.47. VFERDMLNWVSLSLDHCWCS gave an amyloid nucleation score of 1.31 ± 0.36. For VFFNYSNCLGLA, the amyloid nucleation score was “inactive”. Substance VFGKGQWVDLIRRREDVYTN has an amyloid nucleation score of -0.759 ± 1.1. For VFGPPWCLGHSHWILFYVGC, the amyloid nucleation score was -0.519 ± 1. In the case of VFIVL, the amyloid nucleation score is reported as 1.65 ± 0.41.
